From patent US20230391828A1, “REGULATORS OF CELL DIVISION” (TECHNISCHE UNIVERSITÄT DRESDEN, priority 2020, published 2023)
Blank lines part the entries; values can stand above or below the substance they belong to. Bridge positions count the residues as written; N and C are the ends. Square brackets hold non-standard residues; d marks the D form. R8 = C=CCCCCCC[C@@](C)(N)C(=O)O; S5 = C=CCCC[C@](C)(N)C(=O)O; Pra = C#CC[C@H](N)C(=O)O

Legend:
APC/C [1] = experiment: Ubiquitinated securin (Mean ± SD); details: 100 µM
Description: Table printed on a drawing sheet, Figure 6
Head of the field: Ubiquitinated securin (Mean ± SD)

Cullin 1 = target: T1, Cullin 1 (Homo sapiens, UniProt Q13616); experiment: Pull-down binding assay in HeLa K cell extract, Cullin 1; details: azide beads, Western blot
T1 construct: endogenous in cells; host or cells: HeLa K cell extract
T1 sequence (Q13616 whole entry): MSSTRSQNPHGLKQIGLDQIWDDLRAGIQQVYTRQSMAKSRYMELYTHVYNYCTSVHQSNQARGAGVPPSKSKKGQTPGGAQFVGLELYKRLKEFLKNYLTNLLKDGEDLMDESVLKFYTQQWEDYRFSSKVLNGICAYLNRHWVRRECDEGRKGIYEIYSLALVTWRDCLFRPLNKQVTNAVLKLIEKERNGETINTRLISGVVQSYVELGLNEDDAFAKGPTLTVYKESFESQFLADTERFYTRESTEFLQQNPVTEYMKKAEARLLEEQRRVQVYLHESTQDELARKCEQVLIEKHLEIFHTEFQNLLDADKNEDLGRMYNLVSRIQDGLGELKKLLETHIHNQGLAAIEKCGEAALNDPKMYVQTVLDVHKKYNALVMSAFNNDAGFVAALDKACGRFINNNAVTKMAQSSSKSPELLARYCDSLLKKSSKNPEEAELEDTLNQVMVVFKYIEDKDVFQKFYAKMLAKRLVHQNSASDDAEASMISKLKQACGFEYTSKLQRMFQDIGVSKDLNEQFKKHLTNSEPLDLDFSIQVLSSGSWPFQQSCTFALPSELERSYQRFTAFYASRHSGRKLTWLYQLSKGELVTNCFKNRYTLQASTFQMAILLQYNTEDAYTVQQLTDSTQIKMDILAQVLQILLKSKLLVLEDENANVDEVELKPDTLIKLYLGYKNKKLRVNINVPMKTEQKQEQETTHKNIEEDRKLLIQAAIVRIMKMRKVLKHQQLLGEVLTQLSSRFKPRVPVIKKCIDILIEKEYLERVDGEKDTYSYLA
Description: (§1) For the protein transfer, the 0.45 μm Immobilon-FL PVDF membrane (Merck Millipore) was used. The membrane was activated in ethanol and then transferred to the Blotting buffer (50 mM SDS-MOPS, 50 mM Tris base, 0.1% SDS, 1 mM EDTA, 20% EtOH). The proteins were transferred using a wet transfer for 1.5 h at 400 mA. Subsequently, the membrane was incubated with the blocking solution, 10% milk in PBS-T (0.02% Tween-20 in PBS), for 1 h at room temperature. To detect proteins of the interest, the membrane was incubated with primary antibodies overnight at 4° C. Followed by washing the membrane 3 times 10 min with PBS-T and incubation with IRDye fluorescently labelled secondary antibodies for 1 h. Prior detection, the membrane was twice washed with PBS-T for 10 min and once with PBS for 10 min. The detection was done using the quantitative near-infrared scanning system Odyssey (LI-COR Biosciences).
HeLa K cell pellet was re-suspended in the extraction buffer (30 mM HEPES pH 7.5, 175 mM NaCl, 2.5 mM MgCl2, 0.25% NP40, 10% glycerol, 1 mM DTT) supplemented with 10 μM MG132 (VWR), 1 mM PMSF (Sigma-Aldrich), complete protease inhibitor cocktail (Roche) and PhosSTOP phosphatase inhibitors (Roche) and incubated for 20 min on ice, followed by centrifugation of cell debris for 15 min at 4° C. 16 100 g. […]

APC/C (APC11) = target: T2, APC/C (APC11) (Homo sapiens, UniProt Q9NYG5); experiment: Pull-down binding assay in HeLa K cell extract, APC/C; details: Pra peptide clicked to azide agarose or magnetic beads, Western blot
T2 construct: endogenous in cells; host or cells: HeLa K cell extract
Description: as §1
HeLa K cell pellet was re-suspended in the extraction buffer (30 mM HEPES pH 7.5, 175 mM NaCl, 2.5 mM MgCl2, 0.25% NP40, 10% glycerol, 1 mM DTT) supplemented with 10 μM MG132 (VWR), 1 mM PMSF (Sigma-Aldrich), complete protease inhibitor cocktail (Roche) and PhosSTOP phosphatase inhibitors (Roche) and incubated for 20 min on ice, followed by centrifugation of cell debris for 15 min at 4° C. 16 100 g. In mean time, inhibitor molecules containing Propargyl (Pra) chemical group were covalently attached to the azide agarose or azide magnetic resin (Jena Bioscience) by Cu(I)-catalysed azide-alkyne cycloaddition reaction. Specifically, the inhibitor molecules were mixed with azide agarose resin in ratio 0.125 μmol inhibitor/25 μl agarose resin and azide magnetic resin in ratio 0.018 μmol inhibitor/20 μl magnetic resin. The reaction was catalysed by 1 mM CuSO4, 0.1 mM TBTA (Sigma-Aldrich) and 1 mM Sodium ascorbate and was performed on the rotating wheel for 30 min at room temperature in the volume of 1 ml. Subsequently, the resin was washed 5 times with the extraction buffer. The inhibitor-agarose resin was added to 1 mg of HeLa K cell extract and the inhibitor-magnetic resin was added to 0.5 mg of HeLa K cell extract followed by incubation at 4° C. for 2 h. Followed by washing the resin 5 times with the extraction buffer. Pull-down proteins were eluted by boiling for 15 min with 1×LDS sample buffer supplemented with 100 mM DTT (agarose resin) or by incubation with 1×LDS sample buffer for 10 min at room temperature followed by taking supernatant that was supplemented with 100 mM DTT and boiling it for 10 min. Samples were subjected to SDS PAGE and Western blot analysis.
HeLa K cell pellet was re-suspended in the extraction buffer (30 mM HEPES pH 7.5, 175 mM NaCl, 2.5 mM MgCl2, 0.25% NP40, 10% glycerol, 1 mM DTT supplied with complete protease inhibitor cocktail (Roche), PhosSTOP phosphatase inhibitors (Roche), 1 mM PMSF, 10 μM MG132) and incubated for 20 min on ice, followed by centrifugation to clear the lysate for 15 min at 4° C. 16,100 g. In the meantime, inhibitor molecules containing the propargyl-Gly-OH (Pra) chemical group were covalently attached to the azide agarose resin (Jena Bioscience) by Cu(I)-catalysed azide-alkyne cycloaddition reaction. Specifically, the inhibitor molecules were mixed with azide agarose resin in ratio 0.125 μmol inhibitor/20 μl agarose resin. The reaction was catalysed by 0.1 mM CuSO4, 0.5 mM THPTA (Sigma-Aldrich) and 5 mM Sodium ascorbate and was performed on the rotating wheel for 30 min at room temperature in the volume of 1 ml. […]

APC/C [2] = target: T3, APC/C (Homo sapiens, UniProt Q9NYG5); experiment: In vitro APC/C ubiquitination assay driven by the E2 enzyme UBE2C, fluorophore-labelled securin substrate; assay type: biochemical; details: 100 μM, UBE2C, reaction time 45 min
T3 construct: made in house; host or cells: SF9 insect cells (baculovirus)
Description: Proteins were separated by SDS-PAGE electrophoresis using precast Bolt 4-12% Bis-Tris Plus protein gels (Thermo Fisher Scientific) and Criterion XT Bis-Tris Midi Protein Gels (Bio-Rad). In different experiments, various conditions were used: in vitro APC/C ubiquitination assays—165 V, 40 min, SDS-MES running buffer (50 mM MES, 50 mM Tris base, 0.1% SDS, 1 mM EDTA, pH 7.3; Thermo Fisher Scientific); in vitro APC/C ubiquitination assays determining KM—165V, 1 h, SDS-MOPS running buffer (50 mM MOPS, 50 mM Tris base, 0.1% SDS, 1 mM EDTA, pH 7.7; Thermo Fisher Scientific); pull-down binding assay—165 V, 35 min, SDS-MES running buffer.
APC/C-dependent ubiquitination reactions were performed at 30° C. in 30 mM HEPES pH 7.4, 175 mM NaCl, 8 mM MgCl2, 0.05% Tween-20, 1 mM DTT and 5% glycerol and contained 20 nM recombinant APC/C (note, for testing the first generation of inhibitors, APC/C and Cdc20 immunoprecipitated from mitotic HeLa K cells was used), 340 nM Cdc20, 46 nM GST-UBA1, 340 nM UBE2C (alternatively 400 nM UBE2D1, 280 nM UBE2S), 21 μM His6-ubiquitin or if it is indicated 21 μM methylated-ubiquitin (BostonBiochem), 2.6 mM ATP, 10 mM phosphocreatine and 11 μM creatine kinase. As substrates, 35 nM fluorophore-labeled ubiquitin-cyclin B and 50 nM fluorophore-labeled securin were standardly used (fluorophore IRDye 800CW (LI-COR) was used for labelling). In case of KM and kcat determination, 50, 100, 250, 500, 750, 1000, 1250, 2500 and 5000 nM fluorophore-labelled securin was used. The reaction was done in the volume of 15 μl, it was quenched after the indicated time with LDS sample buffer (Thermo Fisher Scientific) supplemented with 100 mM DTT and subjected to SDS-PAGE. Detection of fluorescently labelled substrates was done by quantitative near-infrared scanning system Odyssey.

Substance: Ac-cyclo(4,11)-EWWZKLEIQRXRRA-NH2 (Ac-EWW[R8]KLEIQR[S5]RRA-NH2; staple 4-11; SMILES CC[C@H](C)[C@@H]1NC(=O)[C@H](CCC(=O)O)NC(=O)[C@H](CC(C)C)NC(=O)[C@H](CCCCN)NC(=O)[C@](C)(NC(=O)[C@H](Cc2c[nH]c3ccccc23)NC(=O)[C@H](Cc2c[nH]c3ccccc23)NC(=O)[C@H](CCC(=O)O)NC(C)=O)CCCCCCC=CCCC[C@@](C)(C(=O)N[C@@H](CCCNC(=N)N)C(=O)N[C@@H](CCCNC(=N)N)C(=O)N[C@@H](C)C(N)=O)NC(=O)[C@H](CCCNC(=N)N)NC(=O)[C@H](CCC(N)=O)NC1=O) [G3-4]
Ubiquitinated securin (Mean ± SD) (APC/C [1]): 4.5 ± 7%

Substance: Ac-cyclo(4,11)-EWWZKLELQRXRRA-NH2 (Ac-EWW[R8]KLELQR[S5]RRA-NH2; staple 4-11; SMILES CC(=O)N[C@@H](CCC(=O)O)C(=O)N[C@@H](Cc1c[nH]c2ccccc12)C(=O)N[C@@H](Cc1c[nH]c2ccccc12)C(=O)N[C@]1(C)CCCCCCC=CCCC[C@@](C)(C(=O)N[C@@H](CCCNC(=N)N)C(=O)N[C@@H](CCCNC(=N)N)C(=O)N[C@@H](C)C(N)=O)NC(=O)[C@H](CCCNC(=N)N)NC(=O)[C@H](CCC(N)=O)NC(=O)[C@H](CC(C)C)NC(=O)[C@H](CCC(=O)O)NC(=O)[C@H](CC(C)C)NC(=O)[C@H](CCCCN)NC1=O) [G3-5]
Ubiquitinated securin (Mean ± SD) (APC/C [1]): 6.1 ± 7%

binding to Cullin 1 (pull-down) (Cullin 1): almost does not bind
binding to the APC/C (pull-down) (APC/C (APC11)): binds to the APC/C (APC2 and APC11)
Substance: Ac-cyclo(5,9)-RWPPraXKWDXQVRRW-NH2 (Ac-RWP[Pra][S5]KWD[S5]QVRRW-NH2; staple 5-9; SMILES C#CC[C@H](NC(=O)[C@@H]1CCCN1C(=O)[C@H](Cc1c[nH]c2ccccc12)NC(=O)[C@H](CCCNC(=N)N)NC(C)=O)C(=O)N[C@@]1(C)CCCC=CCCC[C@@](C)(C(=O)N[C@@H](CCC(N)=O)C(=O)N[C@H](C(=O)N[C@@H](CCCNC(=N)N)C(=O)N[C@@H](CCCNC(=N)N)C(=O)N[C@@H](Cc2c[nH]c3ccccc23)C(N)=O)C(C)C)NC(=O)[C@H](CC(=O)O)NC(=O)[C@H](Cc2c[nH]c3ccccc23)NC(=O)[C@H](CCCCN)NC1=O) [G3-1Pra]

Substance: Ac-cyclo(5,9)-RWPQXIKDXQVRWW-NH2 (Ac-RWPQ[S5]IKD[S5]QVRWW-NH2; staple 5-9; SMILES CC[C@H](C)[C@@H]1NC(=O)[C@@](C)(NC(=O)[C@H](CCC(N)=O)NC(=O)[C@@H]2CCCN2C(=O)[C@H](Cc2c[nH]c3ccccc23)NC(=O)[C@H](CCCNC(=N)N)NC(C)=O)CCCC=CCCC[C@@](C)(C(=O)N[C@@H](CCC(N)=O)C(=O)N[C@H](C(=O)N[C@@H](CCCNC(=N)N)C(=O)N[C@@H](Cc2c[nH]c3ccccc23)C(=O)N[C@@H](Cc2c[nH]c3ccccc23)C(N)=O)C(C)C)NC(=O)[C@H](CC(=O)O)NC(=O)[C@H](CCCCN)NC1=O) [G3-3]
Ubiquitinated securin (Mean ± SD) (APC/C [1]): 5.1 ± 6%

Substance: Ac-cyclo(5,9)-RWPQXKWDXQVRRW-NH2 (Ac-RWPQ[S5]KWD[S5]QVRRW-NH2; staple 5-9; SMILES CC(=O)N[C@@H](CCCNC(=N)N)C(=O)N[C@@H](Cc1c[nH]c2ccccc12)C(=O)N1CCC[C@H]1C(=O)N[C@@H](CCC(N)=O)C(=O)N[C@@]1(C)CCCC=CCCC[C@@](C)(C(=O)N[C@@H](CCC(N)=O)C(=O)N[C@H](C(=O)N[C@@H](CCCNC(=N)N)C(=O)N[C@@H](CCCNC(=N)N)C(=O)N[C@@H](Cc2c[nH]c3ccccc23)C(N)=O)C(C)C)NC(=O)[C@H](CC(=O)O)NC(=O)[C@H](Cc2c[nH]c3ccccc23)NC(=O)[C@H](CCCCN)NC1=O) [G3-1] [listing 1 of 2 here]
Ubiquitinated securin (Mean ± SD) (APC/C [1]): 15.7 ± 8%

binding to the APC/C (pull-down) (APC/C (APC11)): binds specifically to the APC/C
Substance: Ac-cyclo(5,9)-RWPQXKWDXQVRRW-NH2 (Ac-RWPQ[S5]KWD[S5]QVRRW-NH2; staple 5-9; SMILES CC(=O)N[C@@H](CCCNC(=N)N)C(=O)N[C@@H](Cc1c[nH]c2ccccc12)C(=O)N1CCC[C@H]1C(=O)N[C@@H](CCC(N)=O)C(=O)N[C@@]1(C)CCCC=CCCC[C@@](C)(C(=O)N[C@@H](CCC(N)=O)C(=O)N[C@H](C(=O)N[C@@H](CCCNC(=N)N)C(=O)N[C@@H](CCCNC(=N)N)C(=O)N[C@@H](Cc2c[nH]c3ccccc23)C(N)=O)C(C)C)NC(=O)[C@H](CC(=O)O)NC(=O)[C@H](Cc2c[nH]c3ccccc23)NC(=O)[C@H](CCCCN)NC1=O) [G3-1] [listing 2 of 2 here]
inhibition of APC/C activity in vitro compared with TAME (APC/C [2]; 3 independent assays): inhibit APC/C in vitro more efficiently than TAME

Substance: cyclo(1,14)-[T F L W K W E W T K R K p P] (cyclo(TFLWKWEWTKRK[dP]P); SMILES CC(C)C[C@@H]1NC(=O)[C@H](Cc2ccccc2)NC(=O)[C@H]([C@@H](C)O)NC(=O)[C@@H]2CCCN2C(=O)[C@H]2CCCN2C(=O)[C@H](CCCCN)NC(=O)[C@H](CCCNC(=N)N)NC(=O)[C@H](CCCCN)NC(=O)[C@H]([C@@H](C)O)NC(=O)[C@H](Cc2c[nH]c3ccccc23)NC(=O)[C@H](CCC(=O)O)NC(=O)[C@H](Cc2c[nH]c3ccccc23)NC(=O)[C@H](CCCCN)NC(=O)[C@H](Cc2c[nH]c3ccccc23)NC1=O) [G2-8]
inhibition of APC/C activity in vitro (ubiquitinated securin) (APC/C [2]): inhibit APC/C in vitro the most effectively compared to other molecules of item (f)
